# Measured values published in patent US20220372147A1 (UNIVERSIT T STUTTGART, published 2022).
# Like-named read-outs stand apart in the source and are kept apart here.
# B1: tetravalent and bispecific eIg-Fab molecule targeting HER3 and EGFR (bispecific antibody)
# light 1: QAGLTQPPAVSVAPGQTASITCGRDNIGSRSVHWYQQKPGQAPVLVVYDDSDRPAGIPERFSGSNYENTATLTISRVEAGDEADYYCQVWGITSDHVVFGGGTKLTVLGTDFTPPTVKILQSSSDGGGHFPPTIQLLCLVSGYTPGTIQITWLEDGQVMDVDLSTASTTQEGELASTQSELTLSQKHWLSDRTYTCQVTYQGHTFEDSTKKCADSN
# light 2: DIQLTQSPSFLSASVGDRVTITCRASQSIGTNIHWYQQKPGKAPKLLIKYASESISGVPSRFSGSGSGTEFTLTISSLQPEDFATYYCQQNNNWPTTFGAGTKLEIKRTVAAPSVFIFPPSDEQLKSGTASVVCLLNNFYPREAKVQWKVDNALQSGNSQESVTEQDSKDSTYSLSSTLTLSKADYEKHKVYACEVTHQGLSSPVTKSFNRGEC
# heavy: not shown
# notes: Homodimerizing Fc; also called eIg-Fab EGFRxHER3
# B2: bivalent and bispecific Fab-eFab molecule targeting HER3 and EGFR (bispecific antibody)
# light 1: QAGLTQPPAVSVAPGQTASITCGRDNIGSRSVHWYQQKPGQAPVLVVYDDSDRPAGIPERFSGSNYENTATLTISRVEAGDEADYYCQVWGITSDHVVFGGGTKLTVLGTDFTPPTVKILQSSSDGGGHFPPTIQLLCLVSGYTPGTIQITWLEDGQVMDVDLSTASTTQEGELASTQSELTLSQKHWLSDRTYTCQVTYQGHTFEDSTKKCADSN
# light 2: DIQLTQSPSFLSASVGDRVTITCRASQSIGTNIHWYQQKPGKAPKLLIKYASESISGVPSRFSGSGSGTEFTLTISSLQPEDFATYYCQQNNNWPTTFGAGTKLEIKRTVAAPSVFIFPPSDEQLKSGTASVVCLLNNFYPREAKVQWKVDNALQSGNSQESVTEQDSKDSTYSLSSTLTLSKADYEKHKVYACEVTHQGLSSPVTKSFNRGEC
# heavy: EVQLVESGGGLVQPGGSLRLSCAASGFSLTNYGVHWVRQAPGKGLEWLGVIWSGGNTDYNTPFTSRFTISRDNSKNTLYLQMNSLRAEDTAVYYCARALTYYDYEFAYWGQGTTVTVSSASTKGPSVFPLAPSSKSTSGGTAALGCLVKDYFPEPVTVSWNSGALTSGVHTFPAVLQSSGLYSLSSVVTVPSSSLGTQTYICNVNHKPSNTKVDKKVEPKSCGGSGGGGSGGQVQLQQSGPGLVKPSQTLSLTCAISGDSVSSNRAAWNWIRQSPSRGLEWLGRTYYRSKWYNDYAQSLKSRITINPDTPKNQFSLQLNSVTPEDTAVYYCARDGQLGLDALDIWGQGTMVTVSSDFTPPTVKILQSSCDGGGHFPPTIQLLCLVSGYTPGTINITWLEDGQVMDVDLSTASTTQEGELASTQSELTLSQKHWLSDRTYTCQVTYQGHTFEDSTKKSADSNAAAHHHHHH
# notes: No Fc region; one site for EGFR and one for HER3; C-terminal His-tag on the heavy chain; also called Fab-eFab EGFRxHER3
# B3: bispecific and bivalent anti-CD3 x anti-HER3 eIgG (bispecific antibody)
# light 1: QAGLTQPPAVSVAPGQTASITCGRDNIGSRSVHWYQQKPGQAPVLVVYDDSDRPAGIPERFSGSNYENTATLTISRVEAGDEADYYCQVWGITSDHVVFGGGTKLTVLGQPKAAPSVTLFPPSSEELQANKATLVCLISDFYPGAVTVAWKADSSPVKAGVETTTPSKQSNNKYAASSYLSLTPEQWKSHRSYSCQVTHEGSTVEKTVAPTECS
# heavy 1: not shown
# heavy 2: not shown
# light 2: not shown
# notes: One site for HER3 (3-43), one for CD3 (huU3, humanized UCHT1); also called eIg1; eIgl
# B4: bivalent and bispecific eIg molecule targeting HER3 and FAP (bispecific antibody)
# light 1: QAGLTQPPAVSVAPGQTASITCGRDNIGSRSVHWYQQKPGQAPVLVVYDDSDRPAGIPERFSGSNYENTATLTISRVEAGDEADYYCQVWGITSDHVVFGGGTKLTVLGQPKAAPSVTLFPPSSEELQANKATLVCLISDFYPGAVTVAWKADSSPVKAGVETTTPSKQSNNKYAASSYLSLTPEQWKSHRSYSCQVTHEGSTVEKTVAPTECS
# heavy 1: not shown
# light 2: DIQMTQSPSSLSASVGDRVTITCRASKSVSTSAYSYMHWYQQKPGKAPKLLIYLASNLESGVPSRFSGSGSGTDFTLTISSLQPEDFATYYCQHSRELPYTFGQGTKLEIKRDFTPPTVKILQSSSDGGGHFPPTIQLLCLVSGYTPGTIQITWLEDGQVMDVDLSTASTTQEGELASTQSELTLSQKHWLSDRTYTCQVTYQGHTFEDSTKKCADSN
# heavy 2: not shown
# notes: Four different polypeptide chains; one site for HER3, one for FAP; also called eIg antibody targeting HER3 and FAP
# B5: bispecific, trivalent eIg-Fab3 targeting HER3 and CD3 (bispecific antibody)
# light 1: QAGLTQPPAVSVAPGQTASITCGRDNIGSRSVHWYQQKPGQAPVLVVYDDSDRPAGIPERFSGSNYENTATLTISRVEAGDEADYYCQVWGITSDHVVFGGGTKLTVLGQPKAAPSVTLFPPSSEELQANKATLVCLISDFYPGAVTVAWKADSSPVKAGVETTTPSKQSNNKYAASSYLSLTPEQWKSHRSYSCQVTHEGSTVEKTVAPTECS
# light 2: not shown
# heavy 1: QVQLVQSGAEVKKPGSSVKVSCKASGGTFSGYTMNWVRQAPGQGLEWMGLINPYKGVSTYNGKFKDRVTITADKSTSTAYMELSSLRSEDTAVYYCARSGYYGDSDWYFDVWGQGTLVTVSSDFTPPTVKILQSSCDGGGHFPPTIQLLCLVSGYTPGTINITWLEDGQVMDVDLSTASTTQEGELASTQSELTLSQKHWLSDRTYTCQVTYQGHTFEDSTKKSADSNGGSGGGGSGGQVQLQQSGPGLVKPSQTLSLTCAISGDSVSSNRAAWNWIRQSPSRGLEWLGRTYYRSKWYNDYAQSLKSRITINPDTPKNQFSLQLNSVTPEDTAVYYCARDGQLGLDALDIWGQGTMVTVSSASTKGPSVFPLAPSSKSTSGGTAALGCLVKDYFPEPVTVSWNSGALTSGVHTFPAVLQSSGLYSLSSVVTVPSSSLGTQTYICNVNHKPSNTKVDKKVEPKSCGTDKTHTCPPCPAPPVAGPSVFLFPPKPKDTLMISRTPEVTCVVVDVSHEDPEVKFNWYVDGVEVHNAKTKPREEQYNSTYRVVSVLTVLHQDWLNGKEYKCKVSNKGLPSSIEKTISKAKGQPREPQVYTLPPCRDELTKNQVSLWCLVKGFYPSDIAVEWESNGQPENNYKTTPPVLDSDGSFFLYSKLTVDKSRWQQGNVFSCSVMHEALHNHYTQKSLSLSPGK
# heavy 2: QVQLQQSGPGLVKPSQTLSLTCAISGDSVSSNRAAWNWIRQSPSRGLEWLGRTYYRSKWYNDYAQSLKSRITINPDTPKNQFSLQLNSVTPEDTAVYYCARDGQLGLDALDIWGQGTMVTVSSASTKGPSVFPLAPSSKSTSGGTAALGCLVKDYFPEPVTVSWNSGALTSGVHTFPAVLQSSGLYSLSSVVTVPSSSLGTQTYICNVNHKPSNTKVDKKVEPKSCGTDKTHTCPPCPAPPVAGPSVFLFPPKPKDTLMISRTPEVTCVVVDVSHEDPEVKFNWYVDGVEVHNAKTKPREEQYNSTYRVVSVLTVLHQDWLNGKEYKCKVSNKGLPSSIEKTISKAKGQPREPQVCTLPPSRDELTKNQVSLSCAVKGFYPSDIAVEWESNGQPENNYKTTPPVLDSDGSFFLVSKLTVDKSRWQQGNVFSCSVMHEALHNHYTQKSLSLSPGK
# Key:
# [1] = biological target: T1, FcεRI Fc fusion protein comprising the extracellular region of FcεRI (human, UniProt P12319 26-205); experiment: ELISA, immobilized FcεRI-Fc, anti-human Fab detection
# T1 construct: extracellular domain; also called FcεRT; FccRT; not shown: Fc part
# T1 sequence (looked up): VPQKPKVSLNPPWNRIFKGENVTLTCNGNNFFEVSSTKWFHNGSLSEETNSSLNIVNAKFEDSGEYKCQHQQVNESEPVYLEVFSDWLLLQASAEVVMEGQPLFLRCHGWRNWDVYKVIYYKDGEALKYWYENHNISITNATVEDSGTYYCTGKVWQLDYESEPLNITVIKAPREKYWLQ
# EGFR-Fc = biological target: T2, EGFR-Fc (UniProt P00533 25-645); experiment: bifunctional sandwich ELISA: immobilized EGFR-Fc, titrated eIg-Fab, then HER3-His as second antigen detected with anti-His-HRP
# T2 construct: also called immobilized EGFR-Fc antigen; not shown: Fc part
# [2] = biological target: T3, His-tagged HER3 protein, extracellular domain (ECD) of HER3 (aa 21-643) (UniProt P21860 21-643); experiment: ELISA, immobilized HER3-His, anti-human Fc-HRP detection
# T3 construct: range 21-643; also called HER3-His; not shown: His-tag
# [3] = biological target: T3, His-tagged HER3 protein, extracellular …; experiment: bifunctional sandwich ELISA: immobilized HER3-His, titrated Fab-eFab, then EGFR-moFc as second antigen detected with anti-mouse Fc-HRP
# EGFR-moFc = biological target: T4, EGFR-moFc (UniProt P00533 25-645); experiment: bifunctional sandwich ELISA: immobilized HER3-His, EGFR-moFc detected with anti-mouse Fc-HRP
# T4 construct: also called EGFR-moFc protein (second soluble antigen); not shown: murine Fc part
# [4] = biological target: T3, His-tagged HER3 protein, extracellular …; experiment: ELISA, immobilized HER3-His, anti-human Fab-HRP detection
# [5] = biological target: EGFR (immobilized control antigen of Example 11) (UniProt P00533 25-645, limits assumed); experiment: ELISA at 50 nM, immobilized EGFR, anti-human Fab detection
# [6] = biological target: T5, HER3 on HER3-expressing cancer cells (LIM1215, BT474) (UniProt P21860 20-1342, limits assumed); experiment: flow cytometry on HER3-expressing LIM1215 cells, PE anti-human Fc
# T5 construct: whole, on cells; also called HER3-expressing LIM1215 cells; HER3-expressing BT474 cells
# [7] = biological target: T6, CD3 on CD3-expressing Jurkat cells (human, UniProt P07766 23-207); experiment: flow cytometry on CD3-expressing Jurkat cells, PE anti-human Fc
# T6 construct: whole, on cells
# [8] = biological target: T5, HER3 on HER3-expressing cancer cells …; experiment: flow cytometry on HER3-expressing BT474 cells, PE anti-human Fc
# [9] = biological target: T3, His-tagged HER3 protein, extracellular …; experiment: ELISA, immobilized HER3-His, anti-human Fc-HRP detection; remark: listed apart in the source
# [10] = biological target: T5, HER3 on HER3-expressing cancer cells …; experiment: flow cytometry on HER3-expressing LIM1215 cells, PE anti-human Fc; remark: listed apart in the source
# [11] = biological target: T5, HER3 on HER3-expressing cancer cells …; experiment: flow cytometry on HER3-expressing LIM1215 and BT474 cells
# [12] = biological target: T6, CD3 on CD3-expressing Jurkat cells; experiment: flow cytometry on CD3-expressing Jurkat cells, PE anti-human Fc; remark: listed apart in the source
# [13] = biological target: T5, HER3 on HER3-expressing cancer cells …; experiment: cell-based or functional assay
# [14] = biological target: T7, Flag-tagged FAP protein, extracellular domain of FAP (aa 32-728) (UniProt Q12884 32-728); experiment: ELISA, immobilized FAP-Flag, anti-human Fc-HRP detection
# T7 construct: range 32-728; also called FAP-Flag; not shown: Flag-tag
# [15] = biological target: T5, HER3 on HER3-expressing cancer cells …; experiment: cell-based or functional assay; remark: listed apart in the source
# T6 sequence (P07766 23-207): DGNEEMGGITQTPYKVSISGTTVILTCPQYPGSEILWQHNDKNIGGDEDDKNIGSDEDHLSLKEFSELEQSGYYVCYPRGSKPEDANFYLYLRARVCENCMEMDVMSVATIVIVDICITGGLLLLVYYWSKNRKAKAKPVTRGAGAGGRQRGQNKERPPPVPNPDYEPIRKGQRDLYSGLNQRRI
# T7 sequence (Q12884 32-728 limits assumed): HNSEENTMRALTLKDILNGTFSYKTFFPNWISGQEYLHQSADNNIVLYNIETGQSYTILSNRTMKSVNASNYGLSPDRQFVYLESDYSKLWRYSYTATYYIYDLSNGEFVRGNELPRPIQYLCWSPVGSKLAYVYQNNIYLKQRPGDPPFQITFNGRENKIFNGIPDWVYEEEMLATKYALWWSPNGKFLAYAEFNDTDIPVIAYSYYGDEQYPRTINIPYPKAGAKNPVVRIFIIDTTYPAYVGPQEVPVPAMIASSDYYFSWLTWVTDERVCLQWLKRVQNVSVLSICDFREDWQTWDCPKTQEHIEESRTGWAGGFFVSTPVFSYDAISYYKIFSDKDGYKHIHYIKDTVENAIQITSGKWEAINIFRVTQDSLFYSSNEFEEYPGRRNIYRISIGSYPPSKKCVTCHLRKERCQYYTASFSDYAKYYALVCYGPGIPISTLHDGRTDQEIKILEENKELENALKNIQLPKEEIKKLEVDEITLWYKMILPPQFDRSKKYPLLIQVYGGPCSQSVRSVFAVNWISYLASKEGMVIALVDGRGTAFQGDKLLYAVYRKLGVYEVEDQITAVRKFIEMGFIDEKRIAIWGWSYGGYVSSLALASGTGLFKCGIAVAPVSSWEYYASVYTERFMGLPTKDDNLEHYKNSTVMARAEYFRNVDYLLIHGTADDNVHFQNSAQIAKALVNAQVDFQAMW
Binder,binding result [1],EC50 [6] [nM],EC50 [7] [nM],EC50 [8] [nM],EC50 [9] [nM],"EC50 value in cell killing (PBMC-mediated cytotoxicity on BT-474 cells, crystal violet) [13] [nM]","EC50 value in cell killing (PBMC-mediated cytotoxicity on LIM1215 cells, crystal violet) [13] [nM]",other results
B1,no binding (tested: 50 nM),–,–,–,–,–,–,EC50 (EGFR-Fc): 0.23 nM; EC50 [2]: 3.3 nM
B2,no binding (tested: 50 nM),–,–,–,–,–,–,EC50 [3]: 1.4 nM; binding result (EGFR-moFc): binds; EC50 [4]: 3.9 nM; binding result [5]: binds
B3,no binding (tested: 50 nM),4,5.1,4.8,2.1,3.8,5.8,"EC50 [10]: 0.4 nM; factor weaker binding than the bispecific, trivalent eIg-Fab molecules [11]: ≤ 50 fold; EC50 [12]: 11.9 nM"
B4,–,–,–,–,3.4,–,–,EC50 [14]: 7.6 nM
B5,–,0.4,1.1,0.2,–,0.5,0.4,potency in cell killing relative to eIg-Fab4 [15]: ~4 fold
